In IntAct's records for PubMed 25988182:

B1: Regulator of RpoS (Escherichia coli (strain K12)), P0AEV1 (parent)
chain: MTQPLVGKQILIVEDEQVFRSLLDSWFSSLGATTVLAADGVDALELLGGFTPDLMICDIAMPRMNGLKLLEHIRNRGDQTPVLVISATENMADIAKALRLGVEDVLLKPVKDLNRLREMVFACLYPSMFNSRVEEEERLFRDWDAMVDNPAAAAKLLQELQPPVQQVISHCRVNYRQLVAADKPGLVLDIAALSENDLAFYCLDVTRAGHNGVLAALLLRALFNGLLQEQLAHQNQRLPELGALLKQVNHLLRQANLPGQFPLLVGYYHRELKNLILVSAGLNATLNTGEHQVQISNGVPLGTLGNAYLNQLSQRCDAWQCQIWGTGGRLRLMLSAE
partner: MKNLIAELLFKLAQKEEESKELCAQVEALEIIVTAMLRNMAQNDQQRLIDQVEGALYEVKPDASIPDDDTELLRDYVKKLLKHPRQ

Variants of: B1
Details: with irap_ecoli iraP

Variant	effect of a mutation on the interaction
MTQPLVGKQILIVEDEQVFRSLLDSWFSSLGATTVLAADGVDALELLGGFTPDLMICAIAMPRMNGLKLLEHIRNRGDQTPVLVISATENMADIAKALRLGVEDVLLKPVKDLNRLREMVFACLYPSMFNSRVEEEERLFRDWDAMVDNPAAAAKLLQELQPPVQQVISHCRVNYRQLVAADKPGLVLDIAALSENDLAFYCLDVTRAGHNGVLAALLLRALFNGLLQEQLAHQNQRLPELGALLKQVNHLLRQANLPGQFPLLVGYYHRELKNLILVSAGLNATLNTGEHQVQISNGVPLGTLGNAYLNQLSQRCDAWQCQIWGTGGRLRLMLSAE [D58A]	decreasing interaction strength
MTQPLVGKQILIVEDEQVFRSLLDSWFSSLGATTVLAADGVDALELLGGFTPDLMICPIAMPRMNGLKLLEHIRNRGDQTPVLVISATENMADIAKALRLGVEDVLLKPVKDLNRLREMVFACLYPSMFNSRVEEEERLFRDWDAMVDNPAAAAKLLQELQPPVQQVISHCRVNYRQLVAADKPGLVLDIAALSENDLAFYCLDVTRAGHNGVLAALLLRALFNGLLQEQLAHQNQRLPELGALLKQVNHLLRQANLPGQFPLLVGYYHRELKNLILVSAGLNATLNTGEHQVQISNGVPLGTLGNAYLNQLSQRCDAWQCQIWGTGGRLRLMLSAE [D58P]	disrupting interaction strength
